Source: US20250340628A1, “COMPOSITIONS AND METHODS FOR TREATING MACROPHAGE ACTIVATION SYNDROME” (TJ Biopharma (Hangzhou) Co., Ltd., priority 2022, published 2025)
Entries after “also recorded” stand apart in the source; their conditions may differ.

Columns and labels:
[1] = test system: macrophage activation syndrome (MAS) model in NOG-EXL mice (overexpress human IL-3 and GM-CSF); assay: macrophage activation syndrome (MAS) model induced by CBMC transplantation in NOG-EXL mice; assay type: in vivo
Procedure: This study is performed to evaluate the in vivo efficacy of IMH001 (see sequences in Table 1), a GM-CSF neutralization antibody, on delaying the disease progression in a macrophage activation syndrome (MAS) model (induced by CBMC transplantation) in NOG-EXL mice. This lymphocyte-independent, effector-driven MAS mice model can be established by engrafting human umbilical cord blood (UCB) into NOG-EXL mice. NOG-EXL (NOD.Cg-Prkdc^scidIL2g^tm1SugTg (SV40/HTLV-IL3, CSF2) is a gene modified strain based on NOG (NOD.Cg-Prkdc^scidIL2^tm1Sug) mice, which is immunodeficient and overexpress human IL-3 and GM-CSF continuously, which can enrich the myeloid cell populations, including Dc, monocyte and macrophage, following human stem cell engraftment. A total of 46 NOG-EXL and 8 NOG mice were used in the study.
Five to six-week-old NOG-EXL mice were irradiated with 1 Gy before tail vein injection of OKT3-pretreated cord blood mononuclear cells (CBMC) reconstitution. The day of reconstruction was defined as Day 0. OKT3-pretreated CBMC engrafted NOG-EXL mice were treated with biweekly i.p. doses of PBS or 10 mg/kg IMH001 starting from week 1 of engraftment. Animal body weights, CBC counting, and serum ferritin were measured at indicated time points.
Four NOG mice (G1) and 14 NOG-EXL mice (6 mice for G2 and 8 mice for G3, respectively) were dosed one week after reconstruction (Day 7), twice a week for 15 weeks. The grouping and dosing regimens were as follows in Table 2:
Body weight: The body weight of mice was measured and recorded once a week after CBMC transplantation.
CBC counting: Whole blood was collected from mice and counted by a CBC machine at week 4, 8 and 16. And at the end of the study, i.e. week 16, total bone marrow viable cells were also counted. Before blood collection, mice were anesthetized with 3-4% isoflurane.
Ferritin, fibrinogen and triglycerides: Serum was collected from mice at week 8 and 16. Then measured separately using ELISA kits. Prior to blood collection, mice were anesthetized with 3-4% isoflurane.
Experimental endpoint collection: The endpoint is Day 112/Week 16. Spleens were collected and weighed from all mice of each groups; cell smears from bone marrow, sections of liver and spleen were collected for Wright Giemsa staining to detect the presence of hemophagocytosis. Activated lymphoid tissue, spleen/lymph nodes, liver, and meninges were collected for H&E section to detect inflammatory cell infiltration and depletion of lymphoid follicles in spleen/lymph nodes.
All data statistical analysis methods involved in this project needed to be consistent with the protocol, and the results were expressed as mean±SEM. Firstly, F-test (IDBS E-WorkBook 10.5.0 (64 bit) © TDBS) was used to analyze the homogeneity of variance. If the variance was homogeneity (p>0.05), one-way ANOVA was carried out. T-test was used for two groups comparation, and Dunnett's multiple comparison method was used for multiple groups comparation. If the variance was heterocedasticity (p≤0.05), Kruskal Wallis method was performed for nonparametric test, U-test was used for two groups comparation (Kruskal Wallis parameter test has significant difference, p≤0.05), and Dunn's multiple comparison method was used for multiple groups comparation (Kruskal Wallis parameter test has no significant difference, p>0.05). p<0.05 was considered as significant difference.

[2] = assay type: physicochemical
Procedure: Three different buffer systems, sodium acetate, histidine hydrochloride and sodium dihydrogen phosphate, were initially evaluated, at various different pH levels, for IMH001. […] The next step evaluated a number of excipients, including sucrose, trehalose, mannitol, proline, arginine hydrochloride, glycine, solidum chloride, PS20 and PS80. According to the changes in stability (CEX-HPLC) results at 50° C. for 1 week, comparison was carried out for the formulation with different excipients. […] It was unknown, however, whether the selected buffer and excipient would allow a protein solubility of IMH001 suitable for subcutaneous injection at a high concentration. The solubility and viscosity of the protein at concentrations of 100 mg/ml and 150 mg/ml in histidine hydrochloride buffer system (pH 5.8) were therefore assessed. […] PS80 (Polysorbate 80) was then tested for its ability to improve durability and stability of the candidate formulations, at different concentrations of sucrose for a protein concentration of 100 mg/ml.

[3] = serum, week 8 and 16, 10 mg/kg i.p. BIW
[4] = 100 mg/ml and 150 mg/ml in 20 mmol/L histidine hydrochloride pH 5.8, 4° C. and 25° C. for 48 hours

B1: IMH001: humanized IgG1 anti-GM-CSF neutralization antibody with VH of SEQ ID NO:1 and VL of SEQ ID NO:2 (antibody, V domains shown)
VH: EVQLVQSGAEVKKPGASVKVSCKASGYTFTSHYLHWVRQAPGQGLEWMGWIFPGDDKTKYNEKFKGRVTMTSDTSISTAYMELSRLRSDDTAVYYCARGTKYLNWNFDVWGQGTTVTVSS
VL: DIQLTQSPSFLSASVGDRVTITCKANQNVGTTLAWYQQKPGKSPKALIYSASYRYSGVPDRFSGSGSGTDFTLTISSLQPEDFATYFCHQYTTYPLTFGGGTKVEIK
body weight ([1]; 10 mg/kg i.p. BIW (G3) vs vehicle control group (G2), Day 63 to Day 112, p<0.05): significantly increased; also recorded: reduced weight loss
disease development / progression (overall) ([1]; 10 mg/kg i.p. BIW for 15 weeks): completely reversed; also recorded: showed efficacy
NEUT percent ([1]; 10 mg/kg i.p. BIW vs untreated): recovery
RBC number in peripheral blood (anemia) ([1]; 10 mg/kg i.p. BIW vs untreated NOG-EXL, in words): effectively improve; also recorded: ameliorated anemia
HGB level ([1]; 10 mg/kg i.p. BIW vs untreated, Day 56): significantly higher; also recorded: increase
monocyte percent ([1]; 10 mg/kg i.p. BIW, considered pharmacological effect): decrease
total bone marrow viable cells (mean value) ([1]; day 112, 10 mg/kg i.p. BIW, vs NOG-EXL untreated 9.55, p=0.182): 11.6
RBC cell number ([1]; peripheral blood CBC, Day 56, 10 mg/kg i.p. BIW, vs untreated 6.45, p<0.001): 8.17
Fibrinogen [1, 3]: No significant changes
Triglyceride [1, 3]: No significant changes
Ferritin level ([1]; serum, wk 8 and wk 16, 10 mg/kg i.p. BIW vs untreated): effectively control; also recorded: significantly reduce; also recorded: inhibited ferritin increase
inflammatory infiltration (histopathology) ([1]; wk 16, H&E, liver and meninx): decreased; also recorded: improved significantly
lymphocyte exhaustion (histopathology) ([1]; wk 16, H&E, spleen and lymph nodes): effectively reduce; also recorded: improved significantly
hemophagocytosis (histopathology) ([1]; wk 16, Wright Giemsa staining of bone marrow smears, liver and spleen sections): effectively prevent; also recorded: improved significantly
antibody stability in buffer systems [2]: stable
changes in appearance color, clarity, OD350, protein concentration and viscosity [2, 4]: no obvious changes
viscosity [2, 4]: lower than 10 cP
viscosity of samples with PS80 and different sucrose concentrations ([2]; protein concentration 100 mg/ml): acceptable
